Results reported in patent publication US7005283B2, “Cytochrome P450 oxygenases and their uses” (Washington State University Research Foundation, priority 1999, dated 2006).

Experiments:
[1] = In vitro enzyme assay for taxoid oxygenase activity (baculovirus-Spodoptera expressed enzyme), substrate taxadiene; format: biochemical, Spodoptera frugiperda; conditions: 30 μM substrate, 32° C., 12 hours
Experimental: The standard enzyme assay for assessing oxygenase activity of the recombinant cytochrome P450 employed the following conditions: 25 mM HEPES buffer, pH 7.5, 400 μM NADPH, 300 μg protein and 30 μM substrate (taxadiene, taxadienol, or taxadienyl acetate) in a total volume of 1 mL. Samples were incubated at 32° C. for 12 hours, after which 1 mL of saturated NaCl solution was added to the reaction mixture, followed by extraction of the product with 2 mL of hexane/ethyl acetate (4:1, v/v). […]
For the functional characterization of clone F16, the recombinant baculovirus carrying the cytochrome P450 clone F16 ORF was coexpressed with a recombinant baculovirus carrying the Taxus NADPH:cytochrome P450 reductase gene. […] The viral titers were determined according to the End-Point Dilution method (O'Reilly et al., Baculovirus Expression Vectors, A Laboratory Manual, New York, N.Y., Freeman and Company, 1992). […]

[2] = format: binding, Saccharomyces cerevisiae
How it was run: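 Full-length Taxus cytochrome P450 clones in pYeDP60 were expressed in yeast, with induction by galactose (10% final) for about 24 h. Whole cells were treated with CO, and CO-difference spectra were recorded spectrophotometrically against untreated cells.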

[3] = In vitro enzyme assay for taxoid oxygenase activity (baculovirus-Spodoptera expressed enzyme), substrate taxadienol; format: biochemical, Spodoptera frugiperda
Experimental: The standard enzyme assay for assessing oxygenase activity of the recombinant cytochrome P450 employed the following conditions: 25 mM HEPES buffer, pH 7.5, 400 μM NADPH, 300 μg protein and 30 μM substrate (taxadiene, taxadienol, or taxadienyl acetate) in a total volume of 1 mL. Samples were incubated at 32° C. for 12 hours, after which 1 mL of saturated NaCl solution was added to the reaction mixture, followed by extraction of the product with 2 mL of hexane/ethyl acetate (4:1, v/v). The extracts were dried and dissolved in acetonitrile for product analysis by radio-HPLC [column: Alltech Econosil C18 5 μm particle size (250 mm×4.6 mm): solvent system A: 0.01% (v/v) H3PO4, 2% acetonitrile, 97.99% H2O; solvent system B: 0.01% H3PO4, 99.99 acetonitrile; gradient: 0–5 minutes, 100% A; 5–15 minutes, 0–50% B; 15–55 minutes, 50–100% B; 55–65 minutes, 100% B; 65–70 minu A; 70–75 minutes, 100% A; flow rate 1 mL/minute; for detection, a radio-chromatography detector (Flow-One®-Beta Series A-100, Radiomatic) was used].
For the functional characterization of clone F16, the recombinant baculovirus carrying the cytochrome P450 clone F16 ORF was coexpressed with a recombinant baculovirus carrying the Taxus NADPH:cytochrome P450 reductase gene. To the insect cell suspension, the two recombinant baculoviruses were added at a multiplicity of infection of 1–5. The viral titers were determined according to the End-Point Dilution method (O'Reilly et al., Baculovirus Expression Vectors, A Laboratory Manual, New York, N.Y., Freeman and Company, 1992). For infection, the cells were incubated for 1 hour at 28° C. and 80 rpm. The cell culture volume was brought to 50 mL with standard cell culture medium, and hemin (Sigma) was added to a final concentration of 2 μg/mL. The infected cells were incubated for 48 hours in a gyratory shaker at 28° C. and 140 rpm. The infected insect cells were harvested from the cell culture medium by centrifugation as described above, and washed twice with PBS (50 mM KH2PO4, pH 7.5, 0.9% NaCl). […]

[4] = In vivo assay of yeast cells expressing recombinant oxygenases, radio-HPLC, substrate taxadiene; format: cell-based, Saccharomyces cerevisiae; conditions: assayed with Taxadiene; graded symbols, key not given

B1: clone F16: Taxus cuspidata cytochrome P450 taxane 9α-hydroxylase, full-length clone, SEQ ID NO: 82 (nt) / 88 (aa) (protein, listed as Taxus cuspidata)
chain: MDALKQLEVSPSILFVTLAVMAGIILFFRSKRHSSVKLPPGNLGFPLVGETLQFVRSLGSSTPQQFIEERMSKFGDVFKTSIIGHPTVVLCGPAGNRLVLSNENKLVQMSWPSSMMKLIGEDCLGGKTGEQHRIVRAALTRFLGPQALQNHFAKMSSGIQRHINEKWKGKDEATVLPLVKDLVFSVASRLFFGITEEHLQEQLHNLLEVILVGSFSVPLNIPGFSYHKAIQARATLADIMTHLIEKRRNELRAGTASENQDLLSVLLTFTDERGNSLADKEILDNFSMLLHGSYDSTNSPLTMLIKVLASHPESYEKVAQEQFGILSTKMEGEEIAWKDLKEMKYSWQVVQETLRMYPPIFGTFRKAITDIHYNGYTIPKGWKLLWTTYSTQTKEEYFKDADQFKPSRFEEEGKHVTPYTYLPFGGGMRVCPGWEFAKMETLLFLHHFVKAFSGLKAIDPNEKLSGKPLPPLPVNGLPIKLYSRS
conversion of taxadiene to an oxygenated product [1]: not converted detectably | CO diff. spec. [2]: +++ | conversion of taxa-4(20),11(12)-dien-5α-ol ([3]; 30 μM substrate, 32° C., 12 hours, GC-MS): converted most efficiently to a diol product | enzyme function assigned from screening ([3]; baculovirus-Spodoptera expression): cytochrome P450 taxane-9α-hydroxylase | identity of the product of the oxygenase reaction with taxadienol ([3]; preparative incubation, 1H- and 13C-NMR): taxa-4(20),11(12)-dien-5α,9α-diol | product identified HPLC peak [4]: No
